Molecular target: Ara h 2 (peanut) (UniProt Q6PSU2)
Assay: SPR, Biacore 3000

Ara h 2 (peanut), sequence (Q6PSU2 23-172): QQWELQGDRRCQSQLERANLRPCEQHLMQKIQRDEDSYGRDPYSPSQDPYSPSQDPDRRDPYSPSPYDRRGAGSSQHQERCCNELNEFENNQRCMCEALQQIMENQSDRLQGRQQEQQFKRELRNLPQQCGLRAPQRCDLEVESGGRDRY

Kd: 4.85 nM
B1: 13BU2T1 (antibody, IgG1, V domains shown)
VH: VESGGGVVQPGASLRLSCVASGFTFRDYSMHWVRQAPGKGLEWMSFIRFDGTTKDYRESVKGRFIISRDDSKNTLYLQMTSLRPEDTARYYCVKDNGWRAFDHWGQGALVIVSS
VL: EIVMTQSPLSLPVTPGEAASISCRSSQSLLHRNGYIYLDWYLQRPGQSPQLLISFVSKRASGAPDRFSGSGSGTDFTLTISRVEAEDFGVYFCMQSLENPWTFGP

From US20240175877A1
